Targets include p107^ΔPL E560H (human) (UniProt P28749); p107^ΔPL H797R (human) (UniProt P28749); p107^ΔPL V490K (human) (UniProt P28749).
Test in all cases: ITC
On the technique in general: Isothermal titration calorimetry measures the heat released or taken up as one component is titrated into another.

Assay [1] concerns the target Rb pocket domain lacking its large internal loop (Rb^ΔPL: residues 380–787 with 581–642 deleted) (human) (UniProt P06400).
Assay [2] concerns the target phosphorylated p107^ΔPL982 (human) (UniProt P28749).
Assay [3] concerns the target p107^ΔPL containing six mutations to the Rb sequence (p107^6x) (human) (UniProt P28749).

This note sets out measurements from PMC5048593.

As for E2F4^TD N395G (domain or fragment), in assay [1], the fold increase in affinity over wild-type E2F4^TD stood at 5 fold. In assay [2], “E2F4 transactivation domain (E2F4^TD) (domain or fragment)” registered a fold reduction in affinity against unphosphorylated p107^ΔPL982 of 3 fold.

In turn, “E2F2 transactivation domain (E2F2^TD) (domain or fragment)” registered a fold higher affinity than p107^ΔPL in assay [3] of 24 fold. The fold increase in affinity over p107^ΔPL in the assay with p107^ΔPL E560H (human), with p107^ΔPL H797R (human) and with p107^ΔPL V490K (human) was 3 fold in each case. As to “E2F1 transactivation domain (E2F1^TD) (domain or fragment)”, the fold higher affinity than p107^ΔPL in assay [3] stood at 3 fold.
